Measurements published in publication PMC3103433 (2011).

B1: His-6-Munc18c [not stated] / Sx4 lacking the N-terminal 36 amino acids (N36Δ), GST fusion [not stated] (parent complex)
chain 1: MAPPVSERGLKSVVWRKIKTAVFDDCRKEGEWKIMLLDEFTTKLLSSCCKMTDLLEEGITVIENIYKNREPVRQMKALYFISPTPKSVDCFLRDFGSKSEKKYKAAYIYFTDFCPDSLFNKIKASCSKSIRRCKEINISFIPQESQVYTLDVPDAFYYCYSPDPSNASRKEVVMEAMAEQIVTVCATLDENPGVRYKSKPLDNASKLAQLVEKKLEDYYKIDEKGLIKGKTQSQLLIIDRGFDPVSTVLHELTFQAMAYDLLPIENDTYKYKTDGKEKEAVLEEDDDLWVRVRHRHIAVVLEEIPKLMKEISSTKKATEGKTSLSALTQLMKKMPHFRKQISKQVVHLNLAEDCMNKFKLNIEKLCKTEQDLALGTDAEGQRVKDSMLVLLPVLLNKNHDNCDKIRAVLLYIFGINGTTEENLDRLIHNVKIEDDSDMIRNWSHLGVPIVPPSQQAKPLRKDRSAEETFQLSRWTPFIKDIMEDAIDNRLDSKEWPYCSRCPAVWNGSGAVSARQKPRTNYLELDRKNGSRLIIFVIGGITYSEMRCAYEVSQAHKSCEVIIGSTHILTPRKLLDDIKMLNKSKDKVSFKDE
chain 2: PDDEFFQKVQTIRQTMAKLESKVRELEKQQVTILATPLPEESMKQGLQNLREEIKQLGREVRAQLKAIEPQKEEADENYNSVNTRMKKTQHGVLSQQFVELINKCNSMQSEYREKNVERIRRQLKITNAGMVSDEELEQMLDSGQSEVFVSNILKDTQVTRQALNEISARHSEIQQLERSIRELHEIFTFLATEVEMQGEMINRIEKNILSSADYVERGQEHVKIALENQKKARKKK
B2: His-6-Munc18c [not stated] / Sx4-GST, wild-type Syntaxin 4 cytosolic domain (residues 1-273) [not stated] (parent complex)
chain 1: B1 chain 1
chain 2: MRDRTHELRQGDNISDDEDEVRVALVVHSGAARLGSPDDEFFQKVQTIRQTMAKLESKVRELEKQQVTILATPLPEESMKQGLQNLREEIKQLGREVRAQLKAIEPQKEEADENYNSVNTRMKKTQHGVLSQQFVELINKCNSMQSEYREKNVERIRRQLKITNAGMVSDEELEQMLDSGQSEVFVSNILKDTQVTRQALNEISARHSEIQQLERSIRELHEIFTFLATEVEMQGEMINRIEKNILSSADYVERGQEHVKIALENQKKARKKK

Variants of: B1
Experiment: GST pull-down, anti-Munc18c immunoblot quantification; 1 μg GST fusion on glutathione-Sepharose, 1 μg Munc18c, binding buffer, overnight, 4°C; read off a plot

| screen value | Variant |
| --- | --- |
| ~13 % of wild-type Sx4 | chain 2 PDDEFFQKVQTIRQTMAKLESKVRELEKQQVTILATPLPEESMKQGLQNLREEIKQLGREVRAQLKAIEPQKEEADENYNSVNTRMKKTQHGVLSQQFVELINKCNSMQSEYREKNVERIRRQLKITNAGMVSDEEAAQMLDSGQSEVFVSNILKDTQVTRQALNEISARHSEIQQLERSIRELHEIFTFLATEVEMQGEMINRIEKNILSSADYVERGQEHVKIALENQKKARKKK [chain 2 L137A, chain 2 E138A] |

Variants of: B1
Experiment: GST pull-down, anti-Munc18c immunoblot quantification; 1 μg GST fusion on glutathione-Sepharose, 1 μg Munc18c, binding buffer, overnight, 4°C; n=3; read off a plot

| screen value | Variant |
| --- | --- |
| ~18 % of wild-type Sx4 | chain 2 PDDEFFQKVQTIRQTMAKLESKVRELEKQQVTILATPLPEESMKQGLQNLREEIKQLGREVRAQLKAIEPQKEEADENYNSVNTRMKKTQHGVLSQQFVELINKCNSMQSEYREKNVERIRRQLKITNAGMVSDEEAAQMLDSGQSEVFVSNILKDTQVTRQALNEISARHSEIQQLERSIRELHEIFTFLATEVEMQGEMINRIEKNILSSADYVERGQEHVKIALENQKKARKKK [chain 2 L137A, chain 2 E138A] |

Variants of: B2
Experiment: GST pull-down, anti-Munc18c immunoblot quantification; 1 μg GST fusion on glutathione-Sepharose, 1 μg Munc18c, binding buffer, overnight, 4°C; read off a plot

| percent of parent | Variant |
| --- | --- |
| ~73 % of wild-type Sx4 | chain 2 MRDRTHELRQGDNISDDEDEVRVALVVHSGAARLGSPDDEFFQKVQTIRQTMAKLESKVRELEKQQVTILATPLPEESMKQGLQNLREEIKQLGREVRAQLKAIEPQKEEADENYNSVNTRMKKTQHGVLSQQFVELINKCNSMQSEYREKNVERIRRQLKITNAGMVSDEEAAQMLDSGQSEVFVSNILKDTQVTRQALNEISARHSEIQQLERSIRELHEIFTFLATEVEMQGEMINRIEKNILSSADYVERGQEHVKIALENQKKARKKK [chain 2 L173A, chain 2 E174A] |

Variants of: B2
Experiment: GST pull-down, anti-Munc18c immunoblot quantification; 1 μg GST fusion on glutathione-Sepharose, 1 μg Munc18c, binding buffer, overnight, 4°C; n=3; read off a plot

| percent of parent | Variant |
| --- | --- |
| ~89 % of wild-type Sx4 | chain 2 MRDRTHELRQGDNISDDEDEVRVALVVHSGAARLGSPDDEFFQKVQTIRQTMAKLESKVRELEKQQVTILATPLPEESMKQGLQNLREEIKQLGREVRAQLKAIEPQKEEADENYNSVNTRMKKTQHGVLSQQFVELINKCNSMQSEYREKNVERIRRQLKITNAGMVSDEEAAQMLDSGQSEVFVSNILKDTQVTRQALNEISARHSEIQQLERSIRELHEIFTFLATEVEMQGEMINRIEKNILSSADYVERGQEHVKIALENQKKARKKK [chain 2 L173A, chain 2 E174A] |
